From the supplement of paper PMC9170038

Test system: MS2 coat protein
Test: apparent KD of MS2 coat protein; designed switch direction (-1 OFF switch, 1 ON switch): 1; higher = weaker reporter binding
Procedure, shortened: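 Apparent KD, taken as the median over clusters for each design, was obtained by curve-fitting normalised cluster fluorescence. Designed RNA switches had been transcribed on Illumina chips by stalled E. coli RNA polymerase and titrated with SNAP-549-labelled MS2 coat protein, doubling from 0.7 or 1.5 nM to 3 µM.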

[1] = input ligand: microRNA oligo, concentration not stated
[2] = Eterna round: R95, input ligand: FMN 200 uM
[3] = Eterna round: R95, input ligand: microRNA oligo, concentration not stated
[4] = Eterna round: R95, input ligand: none

Row | Sequence | apparent KD of MS2 coat protein [1] [µM] | apparent KD of MS2 coat protein (input ligand: FMN 200 uM) [µM] | apparent KD of MS2 coat protein (input ligand: none) [µM] | apparent KD of MS2 coat protein [2] [µM] | apparent KD of MS2 coat protein [3] [µM] | apparent KD of MS2 coat protein [4] [µM]
1 | GCGAGCGUACUUGCAACAUGAGGAUCACCCAUGUUAACUGGACAGGAUAUGGUACCGUUUCGGUACCAGAAGGGUUCACUCAUG [JL SSNG3 3.59] (Eterna round: R96, puzzle: Same State NG 3) | 0.0642 | – | – | – | – | –
2 | GUUACAUGAGGAUCACCCAUGUAUGUGUGGGAGUAAGUGUCUUAGGAUAUCUAUCAUUUAAAUUAAGAGAAGGAAGAUUGUUGU [JMF's solution 12] (Eterna round: R96, puzzle: Same State NG 3) | 0.0735 | 0.126 | 0.118 | – | – | –
3 | UUUUAUUUUUGGGUGCAAGCUUUUUGCUUACAUGAGGAUCACCCAUGUUUUUAUUUUUUAUUUUUAUUUUUAUUUUU (puzzle: Sensor for hsa-mir-208a) | – | – | – | 0.0518 | 0.0603 | 0.0867
4 | GAUCGUUUGAUAGGAUAUCGCUAUACAUGAGGAUCACCCAUGUUUACCACGCUGGUUUUUCGUACCGAGAAGGAUUCUGAUGAU [JL JR sub007 mod 5] (Eterna round: R96, puzzle: Same State NG 2) | 0.0244 | 0.0314 | 0.0354 | – | – | –
5 | ACAAGCUUUUUGCUCCUCUUAUGUCCGAAACAUGAGGAUCACCCAUGUAUAGAUUGUGUGUUGUUGUAGAUGCAAGA [JR_SHM208A_Sub061] (Eterna round: R96, puzzle: Sensor for hsa-mir-208a) | 0.0634 | 0.0738 | 0.0741 | – | – | –
6 | GUGGUGUAGAUACAGGAUAUGUUGCUCGUAACAUGAGGAUCACCCAUGUAUAUAUGAGAUUAAAUGCAGAAGGGUGCACACCACG [Mat - Same State 2 - Mod of UCT - D76] (puzzle: Same State 2) | – | – | – | 0.0246 | 0.0189 | 0.0133
7 | UACAAUCUAUCUGAGGAUAUCAUGAUGAUAACAUGAGGAUCACCCAUGUGCAGGAAAACUGCAUAUGAGAAGGCAGAUAGAUUGU [salish99_ss2_r3_074] (puzzle: Same State 2) | – | – | – | 0.102 | 0.195 | 0.0924
8 | UUUGGGUGGCUGGAGGAUAUCCUGGUUGUUACAUGAGGAUCACCCAUGUGCCGCGCGGUGCGCUGGGAGAAGGCCGGCGGCCGUU (puzzle: Same State 2) | – | – | – | 0.0289 | 0.0611 | 0.141
9 | AGCUUUUAAUUAGGAUAUGGUCACAUGAGGAUCACCCAUGUAACGAUGAUAUAAUGUGGUCAAGACUAGAAGGGAUUGCUAACA [SameState NG2 #68] (Eterna round: R96, puzzle: Same State NG 2) | 0.357 | 0.589 | 0.355 | – | – | –
10 | GGAACACAUGAGGAUCACCCAUGUCAAGGAGGUCGAGGAUAUAGGAAAAAAAAAAAAAAAUUAGAAGGUGAGGAGG [V1] (Eterna round: R96, puzzle: Same State 1) | 0.166 | 0.27 | 0.275 | – | – | –
11 | AUUAUCUAUGCAGGAUAUGAUUAACAUGAGGAUCACCCAUGUGGUGUUGUGAGUAAGGAGAGUGAUCAGAAGGGCAUUUUUUUU [JMF's solution 65] (Eterna round: R96, puzzle: Same State NG 2) | 0.37 | 0.875 | 0.566 | – | – | –
12 | AUAGUUGCCGAAGGAUAUGAUGAGGAUCACCCAUCAGAAGGUUGGCUAUUGGGCUGACAUGAGGAUCACCCAUGUUUCGGUGUU (Eterna round: R96, puzzle: Same State NG 1) | 0.0171 | 0.0192 | 0.0291 | – | – | –
13 | AGCCGAGACGCAGGAUAUAGAUAUCUACAUGAGGAUCACCCAUGUAGCAACACGUGGUAGUGAUUCUAGAAGGGUGCUCGGCGC [Omei SS(NG)2 Cv7] (Eterna round: R96, puzzle: Same State NG 2) | 0.322 | 0.0449 | 0.504 | – | – | –
14 | UAGCGCUGUCGAGAGGAUAUGCGGUGAUGGACAUGAGGAUCACCCAUGUUAGCGAUAGCAUUACGGUAGAAGGCUCUACAGCUGC [salish99_ss2_r3_092] (puzzle: Same State 2) | – | – | – | – | 0.0232 | –
15 | UGGUACAUGGGAGGAUAUCCUCAGGAGACAUGAGGAUCACCCAUGUAAUUUAAGCCGAAAGGCAUGGAGAAGGCCCAUGUACCU [JL SSNG1 3.80] (Eterna round: R96, puzzle: Same State NG 2) | 0.0941 | 0.0195 | 0.129 | – | – | –
16 | UCUUGGUUUUUGCUCGUUUUUUGUGUUGAACAUGAGGAUCACCCAUGUAUUGUACGGUCCAAUUUGAUAAUGGUCCG [JMF 27] (puzzle: Sensor for hsa-mir-208a) | – | – | – | 0.0251 | 0.0139 | 0.0256

Row | Sequence | apparent KD of MS2 coat protein [1] [µM] | apparent KD of MS2 coat protein (input ligand: FMN 200 uM) [µM] | apparent KD of MS2 coat protein (input ligand: none) [µM] | apparent KD of MS2 coat protein [2] [µM] | apparent KD of MS2 coat protein [3] [µM] | apparent KD of MS2 coat protein [4] [µM]
17 | GAGUGGUGGAAAGGAUAUGCAUUGUUAUUCACUGUAGAAGGUUCUAACAUGAGGAUCACCCAUGUAGGACUAUUCCUGUGUUUU [Parity 59 - Jieux - Same State NG 1] (Eterna round: R96, puzzle: Same State NG 1) | 0.0102 | – | – | – | – | –
18 | ACAUGAGACUUAGGAUAUCUUGUACCUACAUGUGACAUGAGGAUCACCCAUGUGGUAAGUAUGAGAGAGAAGGAAGAGAUAUGU [Equivalence 37 - Jieux - Same State NG 2] (Eterna round: R96, puzzle: Same State NG 2) | 0.0144 | 0.0197 | 0.0232 | – | – | –
19 | UUGAAGAAUUAAGGAUAUUGAUUACAUAUGUAUAACAUGAGGAUCACCCAUGUGGGUUGCGGUAUCGAGAAGGUAAAUUACUAG [Mat - same State NG 2 - JL mod - D75] (Eterna round: R96, puzzle: Same State NG 2) | 0.0985 | 0.145 | 0.0982 | – | – | –
20 | GCCAACUCAUGAGGAUAUGGCACCUUAAUGGUGCCAGAAGGCAUGUCUAUUGACAUGAGGAUCACCCAUGUAUUAUUGUUGGCA [Fiskers NG1ss - 25] (Eterna round: R96, puzzle: Same State NG 1) | 0.241 | 0.1 | 0.821 | – | – | –
21 | AGCUAUCGAAAACGAUAGCAAAAGCAUGUACAUGAGGAUCACCCAUGUCGUGUACAAGCUUUUUGCUCGUCUUAAAA [Zipper 23 - 5] (puzzle: Sensor for hsa-mir-208a) | – | – | – | 0.522 | 0.0139 | 0.534
22 | AAAGAUGGACAUGAGGAUCACCCAUGUGGAAAGUGAACAAGCUUUUGCUCGUGACAAAUGAACAAUCCAAUCCUAAA [mksensor] (puzzle: Sensor for hsa-mir-208a version 2) | – | – | – | 0.0263 | 0.0245 | 0.025
23 | GCAACUCGUAGAGGAUAUGUCCAGCAAGUAUCACAUGAGGAUCACCCAUGUUCAGCUCUACACCUGCAGAAGGCUAUUAGUGCA [Eternabot solution 46] (Eterna round: R96, puzzle: Same State NG 2) | 0.0136 | 0.0158 | 0.0172 | – | – | –
24 | GAAGGAUGAGCGUAGGAUAUAGGAGGAGUGACAUGAGGAUCACCCAUGUGGUAGGAGGGAGGGUACUAGAAGGACGAGGAAGAGG [JR_SS2_Sub069] (puzzle: Same State 2) | – | – | – | 0.216 | 0.106 | 0.161
25 | UUCCCAGCGGGAGGAUAUGGUGCCUUGUUGGUGCUAGAAGGUCCAACAUGAGGAUCACCCAUGUGGGAGUGGUCGAGAGACCUC [SS NG10LRO10] (Eterna round: R96, puzzle: Same State NG 1) | 0.238 | 0.307 | 0.427 | – | – | –
26 | AGCUAUCGAAAACGAUAGCAAAAGCAUGUACAUGAGGAUCACCCAUGUCAUGUACAGGCUUUUUGCUCGUCUUAAAA [Zipper 23 - 8] (puzzle: Sensor for hsa-mir-208a) | – | – | – | 0.0264 | 0.0183 | 0.124
27 | CGGGUACAUGAGGAUCACCCAUGUGGAAGAGAUGCAGGAUAUGUGGGAAAAGGGAAUGUAACAGAAGGGCAAGGAG [JR_SS!_Sub016] (puzzle: Same State 1) | – | – | – | 0.0534 | 0.0641 | 0.144
28 | AAAGGAUGAUGUUACAUGAGGAUCACCCAUGUUGUGAUAACUAAGGAUAUGUGUUUAACCAGUUAAUAGAAGGUAGGAUCAUAA [AK SSNG3-V2-4] (Eterna round: R96, puzzle: Same State NG 3) | 0.0974 | 0.168 | 0.124 | – | – | –
29 | GGGCCAGCCUGUGCUGGGCCUUAGCAUGCACAUGAGGAUCACCCAUGUCGUGUACAUGCUUUUUGCUCGUCUUUAAA [Photon Torp-09] (puzzle: Sensor for hsa-mir-208a) | – | – | – | 0.0792 | 0.0156 | 0.0932
30 | GGGUGUGGAAGGAAAGACAGGGAAAGGAAACAUGAGGAUCACCCAUGUGAAGGAAGAAAGGGAGCUCGUCUUAUAAG [JR_SHM208A_Sub002] (puzzle: Sensor for hsa-mir-208a) | – | – | – | 0.026 | 0.0276 | 0.035
31 | GCGAGGAUAUGCAGAGGAUCACCCUGUAGAAGGCGCAAAAGCGAGGAUAUGCAGAGGAUCACCCUGUAGAAGGCGCACUACUCU [pwkr ssNG3 DX 2xF5 +2xFMN.4] (Eterna round: R96, puzzle: Same State NG 3) | 0.161 | 0.153 | 0.221 | – | – | –
